Measured values reported in PMC3029384, “Dimeric SecA Couples the Preprotein Translocation in an Asymmetric Manner” (PLoS ONE, 2011).

B1: proOmpA (natural protein, Escherichia coli, UniProt P0A910 1-346, looked up)
chain: MKKTAIAIAVALAGFATVAQAAPKDNTWYTGAKLGWSQYHDTGFINNNGPTHENQLGAGAFGGYQVNPYVGFEMGYDWLGRMPYKGSVENGAYKAQGVQLTAKLGYPITDDLDIYTRLGGMVWRADTKSNVYGKNHDTGVSPVFAGGVEYAITPEIATRLEYQWTNNIGDAHTIGTRPDNGMLSLGVSYRFGQGEAAPVVAPAPAPAPEVQTKHFTLKSDVLFNFNKATLKPEGQAALDQLYSQLSNLDPKDGSVVVLGYTDRIGSDAYNQGLSERRAQSVVDYLISKGIPADKISARGMGESNPVTGNTCDNVKQRAALIDCLAPDRRVEIEVKGIKDVVTQPQA
notes: Precursor form (unfolded, diluted out of 6 M urea); also called preprotein; source: kept in 6 M urea before dilution
B2: His6-tagged SecB (natural protein, Escherichia coli)
chain: MSEQNNTEMTFQIQRIYTKDISFEAPNAPHVFQKDWQPEVKLDLDTASSQLADDVYEVVLRVTVTASLGEETAFLCEVQQGGIFSIAGIEGTQMAHCLGAYCPNILFPYARECITSMVSRGTFPQLNLAPVNFDALFMNYLQQQAGEGTEEHQ
notes: SecB chaperone, Escherichia coli; The tag is named explicitly only in Materials and for the SecB/proOmpA assembly; also called SecB tetramer; tetrameric SecB

Key:
SecA (Escherichia coli) = SecA (Escherichia coli) (UniProt P10408); conditions: cited from earlier work
His6-tagged SecB = biological target: B2; assay: SEC; SecA monomer 3 uM and preformed SecB/proOmpA 2 uM incubated 1 h at 4 °C in buffer A (20 mM HEPES-KOH, 30 mM KCl, 1 mM DTT, pH 7.4); Superdex G200 analytical column at 4 °C; fractions checked by SDS-PAGE; conditions: both partners purified
[1] = biological target: the molecule itself; assay: SEC; SecA monomer 3 uM and SecB monomer 30 uM incubated 1 h at 4 °C in buffer A (20 mM HEPES-KOH, 30 mM KCl, 1 mM DTT, pH 7.4); Superdex G200 analytical column at 4 °C; peak fraction checked by SDS-PAGE

## SecA (from UniProt P10408)
SecA (Escherichia coli)
  Kd: 1000 nM

## B1
His6-tagged SecB
  stoichiometry N: 1 proOmpA per SecB tetramer

## B2
[1]
  stoichiometry N: 4
